Test: yeast display, Sf9 membrane polyspecificity reagent, FACS + sequencing; frameworks hold sequencing errors
Procedure, shortened: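 In a synthetic yeast display library (Saccharomyces cerevisiae BJ5465), nanobody expression was induced with galactose for 36–48 hours. FACS gates were set low and high (top ~1%) using anti-HA fluorescence for expression and streptavidin fluorescence for binding of the Sf9 membrane reagent. Each polyreactivity label is drawn from the gate of origin.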

| Sequence | polyreactivity (PSR sort gate) |
| --- | --- |
| QVQLVESGGGLVQAGGSLRLSCAASGFTFWWYAMGWYRQAPGKERELVAAISSGGSTNYADSVKGRFTISRDNAKNTVYLQMNSLKPEDTAVYYCNALGVGHSGFTKFSRYYYWGQGTQVTVSS | high polyreactivity |
| QVQLVESGGGLVQAGGSLRLSCAASGFTFWYYAMGWYRQAPGKDRELVASISASGGRTNYADSVKGRFTISRDNAKNTVYLQMNSLKPDDTAVYYCNAASLIAAYGDYYWGQGTQVTVSS | high polyreactivity |
| QVQLVESGGGLVQAGGSLRLSCAASGFTFWYYAMGWYRQAPGKERELVAAISWSGGSTSYADSVKGRFTISRDNAKNTVYLQMNSLKREDTAVYYCAASDYYYYSWRPGDTWYEYWGQGTQVSVSS | high polyreactivity |
| QVQLVESGGGLVQAGGSLRLSCAASGFTFWYYAMGWYRQAPGKERELVAAITRGGNTNYADSVKGRFTISRDNAKNTVYLQMNSLKPEDTAVYYCAVRFSAPGYYYWGQGTQVTVSS | high polyreactivity |
| QVQLVESGGGLVQAGGSLRLSCAASGFTFWYYAMGWYRQAPGKERELVATITSGDSTKYADSVKGRFTISRDNAKNTVYLQMNSLKPEDTAVYDCAAEKVLPFIGYDYWGQGTQVTVSS | low polyreactivity |
| QVQLVESGGGLVQAGGSLRLSCAASGFTFYANAMGWYRQAPGKERELVAAISKSGGRTYYADSVKGRFTISRDNAKNTVYLQMNSLKPEDTAVYYCAAVGSVNYEADFDYWGQGTQVTVSS | high polyreactivity |
| QVQLVESGGGLVQAGGSLRLSCAASGFTFYAYAMGWYRQAPGKERELVAAISKRGGITYYADSVKGRFTISRDNAKNTVYLQMNSLKPEDTAVYYCNADRRRRSGGFAGWHFQRNDYWGQGTLVTVSS | low polyreactivity |
| QVQLVESGGGLVQAGGSLRLSCAASGFTFYAYAMGWYRQAPGKERELVAAISTSGTDTYYADSVKGRFTISRDNAKNTVYLQMNSLKPEDTAVYYCAAELYLYGFYEPIYPYSYDYWGHGTQVTVSS | low polyreactivity |
| QVQLVESGGGLVQAGGSLRLSCAASGFTFYAYTMGWYRQAPGKERELVAAIRTGSSTYYADSVKGRFTISRDNAKITVYLQMNSLKPEDTAVYYCDAPRWRRPYRYDYWGQGTQVTVSS | high polyreactivity |
| QVQLVESGGGLVQAGGSLRLSCAASGFTFYENAMGWYRQAPGKERELVATISYSGGTTYYADSVKGRFTISRDNAKNTVYLQMNSLKPEDTAVYYCNADYFYYGFPDDYWGQGTQVTVSS | low polyreactivity |
| QVQLVESGGGLVQAGGSLRLSCAASGFTFYEYAMGWYRQAPGKERELVAAITQTGVRTYYADSVKGRFTISRDNAKNTVYLQMNSLKPEDTAVYYCAADDPRQRPRGHYDYWGQGTQVTVSS | low polyreactivity |
| QVQLVESGGGLVQAGGSLRLSCAASGFTFYFYAKGWYTQSPGKERELVASISSSGGSTYADSVKGPFTISRDNAKNTVYLQMNSLKPEDTAVYYCAATEIFRFRYVAVGYDYWGQGTQVTVSS | low polyreactivity |
| QVQLVESGGGLVQAGGSLRLSCAASGFTFYFYAMAWYRQAPGKERELVAAISSGGSTKYADSVKVRFTISRDNAKNTVYLQMKSLKPEDTAVYYCNRYYPGSGPLGYWGQGTQVTVSS | low polyreactivity |
| QVQLVESGGGLVQAGGSLRLSCAASGFTFYGNAMGWYRQAPGKERELVAAISGRGGSTYYADSVKGRFTISRDNAKNTVYLQMNSLKPEVTAVYYCAIYVSWPLYYYWGQGTQVTVSS | low polyreactivity |
| QVQLVESGGGLVQAGGSLRLSCAASGFTFYGNAMGWYRQAPGKERELVAAISGRGGSTYYADSVKGRFTISRDNAKNTVYLQMNSRKPEDTAVYYCNKRGPYRWYSAPYGYWGQGTQVTVSS | low polyreactivity |
| QVQLVESGGGLVQAGGSLRLSCAASGFTFYGNAMGWYRQAPGKERELVAAISSGGSTNYADSVKGRFTISRDNAKNTVYLQMNSLKPEDTAVYYCAASYPGQVSFPYASIGFDYWGQGTQVTVSS | low polyreactivity |
| QVQLVESGGGLVQAGGSLRLSCAASGFTFYGNAMGWYRQAPGKERELVAAISSSGGITYYADSVKGRFTISRDNAKNTVYLQMNSLKPEDTAVYYCAAVQGTPDYEYDSWGQGTQVTVSS | low polyreactivity |
| QVQLVESGGGLVQAGGSLRLSCAASGFTFYGNAMGWYRQAPGKERELVSAISYNGGSTYYADSVKGRFTISRDNAKNTVYLQMNSLKPEDTAVYYCAAGYYWQYTSSSAQYAYDYWGQGTQVTVSS | low polyreactivity |
| QVQLVESGGGLVQAGGSLRLSCAASGFTFYGNSMGWYRQATGKERELVAAITSGGSTYYADSVKGRFTISRDNAKNNVYLQMNSLKPEDTAVYYCAAVNGWRRVKRFDYWGQGTQVTVSS | high polyreactivity |
| QVQLVESGGGLVQAGGSLRLSCAASGFTFYGYAMGWYIQAPGKERELVAAITGSGARTYYADSVKGRFTISRDNAKNTVYLQMNSLKPEDTAVYYCNKVGVTRVGYTYRVREYDYWGQGTQVTVSS | high polyreactivity |
| QVQLVESGGGLVQAGGSLRLSCAASGFTFYGYAMGWYRQAPGKERELVAAISSSGGRTYYADSVKGRFTISRDNAKNTVYLQMNSLKPEDTAVYYCAGDYTSRDYYYWGQGTQVTVSS | high polyreactivity |
| QVQLVESGGGLVQAGGSLRLSCAASGFTFYGYAMGWYRQAPGKERELVAAISTRGSRTYYADSVKGRFTISRDNSKNTVYLQMNSLKPEDTAVYYCAARKKHSGYGRGNYWGQGTQVTVSS | high polyreactivity |

| Sequence | polyreactivity (PSR sort gate) |
| --- | --- |
| QVQLVESGGGLVQAGGSLRLSCAASGFTFYGYAMGWYRQAPGKERELVAGITSSGGSTHYADSVKGRFTISRDNAKNTVYLQMNSLKPEDTAVYYCAKVWSFPSNYRAYYYWGQGTQVTVSS | high polyreactivity |
| QVQLVESGGGLVQAGGSLRLSCAASGFTFYGYAMGWYRQAPGKERELVATIRRSTGSTYYADSVKGRFTISRDNAKNTVYLQMNSLKPEDTAVYYCATRVWFPITSYDYWGQGTQVTVSS | low polyreactivity |
| QVQLVESGGGLVQAGGSLRLSCAASGFTFYGYTMGWYRQAPGKEREVVAAITSDGDTNYADSVKGRFTISRDNAKNNVYLQMNSLIPEDTAVYYCNADPGFFFYWWTGDYWGQGTQVTVSS | low polyreactivity |
| QVQLVESGGGLVQAGGSLRLSCAASGFTFYHYAMGWYRQAPGKERELVAAISRSGGSTYYADSVKGRFTISRDNAKNTVYLQMNSLKPEDTAVYYCSKVLRAKNSFDYWGQGTQVTVSS | high polyreactivity |
| QVQLVESGGGLVQAGGSLRLSCAASGFTFYINAMGWYRQAPGKEREFVAAITSRGGSTYYADSVKGRFTISRDNAKNTVYLQMNSLKPEDTAVYYCAARNFLSRRGTYDYWGQGTQVTVSS | high polyreactivity |
| QVQLVESGGGLVQAGGSLRLSCAASGFTFYINVMGWYRQATGKERELVAAITSSGTTNYADSVKGRFTISRDNAKNTVYLQMNSLKPEDTAVYYCAKRSYGGTLHYAFDSWGQGTQVTVSS | low polyreactivity |
| QVQLVESGGGLVQAGGSLRLSCAASGFTFYIYAMGWDRQAPGKERELVAAIRASGGSTYYADSVKGRFTISRDSAKNTVYFLMNSLNPDDTAVYYCAADYKVYASWYYAYTFYYWGQGTQVTVSS | low polyreactivity |
| QVQLVESGGGLVQAGGSLRLSCAASGFTFYIYAMGWSRQAPGKERELVAAISSSGGSTYYADSVKGRFTISRDNAKNTVYLQMNSLNPEDTAVYYWNVVRYPVYRTRYYYWGQGTQVTVSS | high polyreactivity |
| QVQLVESGGGLVQAGGSLRLSCAASGFTFYKNAMGWYRQAPGKERELVASISSGGSTKYADSVKGRFTISRDNAKNTVYLQMNSLKPEDTAVYYCAADSGRNRMYYWGQGTQVTVSS | high polyreactivity |
| QVQLVESGGGLVQAGGSLRLSCAASGFTFYKNTMGWYRQAPGKERELVAAISGSGGRTYYADSVKGRFTISRDNAKNTVYLQMTSLKPEDTAVYYCNAAARYRWQYVYSLYEYGHWGQGTQVTVSS | high polyreactivity |
| QVQLVESGGGLVQAGGSLRLSCAASGFTFYKYAIGWYRQAPGKERELVAGIRRGGTNYADSVKGRFTISRDNAKNTVFLQMNSLKPEDTAVYYCAADVRPYYSAYRGRYYYWGQGTQVTVSS | high polyreactivity |
| QVQLVESGGGLVQAGGSLRLSCAASGFTFYLNAMGWYRQAPGKERELVAAISYSDGSPYYADSVKGRFTISRDNAKNTVYLQRNSLKPEDTAVYYCAADTTDPGGAYQLMDYWRQGTQVTVSS | low polyreactivity |
| QVQLVESGGGLVQAGGSLRLSCAASGFTFYLYAMGWYRQAPGKERELVAAISSGGSTNYADSVKGRFTISRDNAKNTVYLQMNSLKPEDTAVYYCNKRYRRATWWITAYDHWGQGTQVTVSS | high polyreactivity |
| QVQLVESGGGLVQAGGSLRLSCAASGFTFYLYTMAWYRQAPGKERELVATITSDGGTNYADSVKGRFTISRDNAKNTVYLQMNSLKPEDTAVYYCARTARRRYQPYEYWGQGTQVTVSS | low polyreactivity |
| QVQLVESGGGLVQAGGSLRLSCAASGFTFYLYTMGWYRQAPGKERELVASLTGSGGSTYYADSVKGRFTISRDNAKNTVYLQMHSLKPEDTAVYYCNARYYVYSATVDRYYHFYYWGQGTQVTVSS | high polyreactivity |
| QVQLVESGGGLVQAGGSLRLSCAASGFTFYNYAMGWYRQAPGKERELVAAITSRGGSTYYADSVKGRFTISRDYAKNTVYLQMNSLKPEDTAVYYCNAVAKLYYWRYDYWGQGTQVTVSS | low polyreactivity |
| QVQLVESGGGLVQAGGSLRLSCAASGFTFYNYAMGWYRQAPGKERELVAVISRSGGRTKYADSVKGRFTISRDNAKNTVYLQMNSLKPEDTAVYYCAARPSPGYYAYRYAPAIHYDYWGQGTQVTVSS | high polyreactivity |
| QVQLVESGGGLVQAGGSLRLSCAASGFTFYPNAMGWYRQAPGKEWELVAAISRSGSSTYYADSVKGRFTISRDNAKNTVYLQMNSVKPEDTAVYDCNRYGRQYDFYYWGQGTQVTVSS | high polyreactivity |
| QVQLVESGGGLVQAGGSLRLSCAASGFTFYPYAMGWYRQAPGKERELVAIRSDGSTYYADSVKGRFTISRDNAKNTVYLQMNCLKPEDTAVYYCNTEPSRDSYSLYFQTRGDYWGQGTQVTVSS | low polyreactivity |
| QVQLVESGGGLVQAGGSLRLSCAASGFTFYPYSMGWYRQAPGKERELVAAITRGGSTYYADSVKGRFTISRDNAKNTVFLQMNSLKPEDTAVYYCNAYWQGYGYYYWGQGTQVTVSS | low polyreactivity |
| QVQLVESGGGLVQAGGSLRLSCAASGFTFYPYTMGWYRQAPGKEREFVAAISWNCGSTYYADSVKGRFTISCDNAKNTVYLQMNSLKPEDTAVYYCAKRSYRSSARELDYWGQGTQVTVSS | low polyreactivity |

From the nanobody polyreactivity screen of Harvey et al. (2022)
